Test results from doi:10.1101/2025.09.12.675771 (bioRxiv, 2025).
Changes are numbered by the printed parent chain. In names and notes the source's numbering stands.

How the values were obtained:
[1] = target: Programmed death-ligand 1 (PD-L1) (Homo sapiens (assumed), UniProt Q9NZQ7); assay: SPR; format and conditions not told; conditions: both partners purified
RBD of COVID-19 = RBD of COVID-19 (SARS-CoV-2, wild type (Wuhan-Hu-1) …, UniProt P0DTC2)
[2] = target: SARS-CoV-2 RBD (residues 332-527), wild type (SARS-CoV-2, wild type (Wuhan-Hu-1), UniProt P0DTC2)

Sequence of Programmed death-ligand 1 (PD-L1) (Q9NZQ7 19-290): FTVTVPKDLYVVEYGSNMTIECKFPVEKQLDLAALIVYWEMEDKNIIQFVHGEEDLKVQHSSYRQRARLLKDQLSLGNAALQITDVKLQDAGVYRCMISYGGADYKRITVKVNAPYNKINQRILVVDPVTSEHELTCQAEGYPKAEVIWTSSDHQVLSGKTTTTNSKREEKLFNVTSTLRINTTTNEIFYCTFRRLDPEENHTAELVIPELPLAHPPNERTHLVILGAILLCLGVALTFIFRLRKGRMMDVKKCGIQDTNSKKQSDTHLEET

B1: D1 (antibody, V domains shown)
VH: not shown
VL: DIQMTQSPSTLSASVGDRVTITCKASQDVNTAVAWYQQKPGKAPKLLIYWASTLHTGVPSRFSGSGSGTEFTLTISSLQPDDFATYYCQHYYTDPWTFGQGTKVEIK
[1]
  Kd: 0.084 nM

B2: Human-1 (antibody, V domains shown)
VH: QVQLKESGPGLVKPSQTLSLTCTVSGFSLINYAISWIRQPPGKGLEWIGVIWTGGGTNYNSALKSRLTISKDTSKNQVSLKLSSVTAADTAVYYCARKDYYGRYYGMDYWGQGTTVTVSS
VL: QAVVTQEPSFTVSPGGTVTLTCRSSTGAVTTSNYANWYQQTPGQLFTGLIGGTNNRAPGVPDRFSGSLLGDKAALTITGAQADDEAIYYCALWYNNHWVFGGGTKLTVL
RBD of COVID-19
  Kd: 0.171 nM

B3: Human-5 (antibody, V domains shown)
VH: QVQLQESGPGLVKPSETLSLTCTVSGFSLINYAISWVRQPPGKGLEWLGVIWTGGGTNYNSALKSRLTISKDNSKNTVYLKMNSLKTEDTARYYCARKDYYGRYYGMDYWGQGTLVTVSS
VL: B2 VL with T11S, Y38V, Q40E, L45A, T47R, D71N, A86S
RBD of COVID-19
  Kd: 0.139 nM

B4: D2 (antibody, V domains shown)
VH: not shown
VL: DIQMTQSPSTLSASVGDRVTITCRASQDVSSYLAWYQQKPGKAPKLLIYAASFLQSGVPSRFSGSGSGTEFTLTISSLQPDDFATYYCQQHYSTPPTFGQGTKVEIK
[1]
  binding result: binds

B5: D4 (antibody, V domains shown)
VH: EVQLLESGGGLVQPGGSLRLSCAASGFTFSNYAMSWVRQAPGKGLEWVSAISSGGGYTYYADSVKGRFTISRDNSKNTLYLQMNSLRAEDTAVYYCAKDHDYAYYAFDYWGQGTLVTVSS
VL: B4 VL with D28S, V29I, S31N, Y32W, A50W, F53T, Q55E, H91Y, Y92A, P96L
[1]
  binding result: binds

B6: R1-32-Q61E-WT (antibody, V domains shown)
VH: EVQLVQSGAEVKKPGSSVKVSCKASGGTFSSYFISWVRQAPGQGLEWMGGIIPILGIADYAEKFQGRVTITADKSTSTAYMELSSLRSEDTAVYYCARENGYSGYGAAYNFDLWGRGTLVTVSS
VL: QSVLTQPPSVSGAPGQRVTISCTGSDSNIGAGYDVHWYQQLPGTAPKLLIYGNSNRPSGVPDRFSGSKSGTSASLAITGLQAEDEADYYCQSYDSSLSGSVFGGGTKLTVL
[2]
  binding result: binds

B7: D3 (antibody, V domains shown)
VH: not shown
VL: DIQMTQSPSTLSASVGDRVTITCRASQTIGTWLAWYQQKPGKAPKLLIYTATSLADGVPSRFSGSGSGTEFTLTISSLQPDDFATYYCQQVSSNPRTFGQGTKVEIK
[1]
  binding result: binds
